The nature of data set [1]: competitive phage ELISA with ATP. Type of data set: binding. To be noted: ATP from equal amount up to 10000 times that of the antigen. The protocol:
ATNLSA1-4_D12 and PF1 were each diluted with TBS and subjected to ELISA by the following procedure.
A StreptaWell 96 microtiter plate (Roche) was coated at room temperature for one hour with 100 μl of TBS containing biotin-labeled antigens (a mixture of 5′-adenosine-PEG-biotin and ATP-PEG-biotin). After the antigens were removed by washing each well of the plate with TBST, the wells were blocked with 250 μl of 2% skim milk/TBS for one hour or more. 2% skim milk/TBS was removed, and then the prepared, purified phages were added to each well. The plate was allowed to stand at room temperature for one hour to allow binding of the antibody-displaying phages to the antigens in each well. […] For the competition of the immobilized antigen with ATP, the plate was allowed to stand at room temperature for one hour. Then, after TBST wash, an HRP-conjugated anti-M13 antibody (Amersham Pharmacia Biotech) diluted with TBS was added to each well. The plate was incubated for one hour. Following TBST wash, the TMB single solution (ZYMED) was added to each well. The chromogenic reaction in the solution of each well was terminated by adding sulfuric acid. Then, the developed color was assessed by measuring absorbance at 450 nm.

Data set [2] in a line: SPR (Biacore T200) binding of humanized SMB0002 and its variants to AMP. Particulars: Biacore T200, 25° C.; read-out: KD of humanized SMB0002 toward AMP. The protocol: (§1) Binding of humanized SMB0002 to adenosine and AMP was measured and analyzed by a method using Biacore T200 (GE Healthcare). Protein A (Invitrogen) immobilized in an appropriate amount onto a Sensor chip CM5 (GE Healthcare) by the amine coupling method was allowed to capture the antibody of interest, and the interaction with the antigen adenosine, AMP, ADP, or ATP was observed. The running buffer used was 50 mM Tris-HCl, 150 mM NaCl, 0.02% (w/v) Tween 20, pH 7.6, for adenosine and AMP, and 50 mM Tris-HCl, 150 mM NaCl, 0.02% (w/v) Tween 20, 2 mM MgCl2, pH 7.6, for ADP and ATP. All measurements were carried out at 25° C. The antigens were diluted with the running buffer.
(§2) Then, the running buffer was run at a flow rate of 30 μL/min for five minutes, and dissociation of the antigens from the antibody was observed. Next, 10 mM glycine-HCl, pH 1.5, was added at a flow rate of 30 μL/min for 30 seconds to regenerate the sensor chip. Kinetic parameters such as the association rate constant ka (1/Ms) and the dissociation rate constant kd (l/s) were calculated based on the sensorgrams obtained by the measurements. The dissociation constant KD (M) was calculated from these constants. Each parameter was calculated using Biacore T200 Evaluation Software (GE Healthcare).
(§3) As a result of the measurements, the affinity of each variant toward adenosine and AMP was calculated as KD value. […]
A general note: Surface plasmon resonance follows binding to a sensor surface in real time, without labels.

The nature of data set [3]: SPR (Biacore T200) binding of humanized SMB0002 and its variants to adenosine. Particulars: Biacore T200, 25° C.; read-out: KD of humanized SMB0002 toward adenosine. The protocol:
as §1, §2, §3

Data set [4] can be described thus: SPR (Biacore T200) binding of humanized SMB0002 to ADP. To be noted: Biacore T200, 25° C., 2 mM MgCl2; read-out: KD of humanized SMB0002 toward ADP. The protocol: as §1, §2
Data set [5] in a line: SPR (Biacore T200) binding of humanized SMB0002 to ATP. To be noted: Biacore T200, 25° C., 2 mM MgCl2; read-out: KD of humanized SMB0002 toward ATP. On the procedure:
as §1, §2

Data set [6] is described as follows: SPR (Biacore T200) binding of 6RNMSC1-2_F02 and variants to kynurenine. To be noted: for Kd / ka for kynurenine / kd for kynurenine: Biacore T200, 15° C., 5% DMSO. The protocol:
An appropriate amount of protein A (Invitrogen) was immobilized onto Sensor chip CM4 (GE Healthcare) by the amine coupling method. The antibody of interest was captured thereon, and the antigen kynurenine and derivatives thereof were allowed to interact. The running buffer used was 50 mmol/L Tris-HCl, 150 mmol/L NaCl, 0.02% (w/v) Tween 20, 5% DMSO, pH 7.6. All measurements were carried out at 15° C. The antigens were diluted with the running buffer.
Then, the running buffer was run at a flow rate of 30 μL/min for 60 seconds to observe the dissociation of antigens from the antibody. Kinetic parameters, the association rate constant ka (1/Ms) and the dissociation rate constant kd (l/s), were calculated based on the sensorgrams obtained by the measurements. The dissociation constant KD (M) was calculated from these constants. Each parameter was calculated using Biacore T200 Evaluation Software (GE Healthcare).
(§4) Meanwhile, the type of sensor chip immobilized with Protein A was changed to Sensor chip Series S CM3 (GE Healthcare) to measure some of the variants. When kynurenine dissociation was too fast to determine the dissociation rate constant, a dissociation constant KD (M) was calculated by analysis of equilibrium values based on the degree of binding response during the interaction with each antigen (association phase). In this case also, Biacore T200 Evaluation Software (GE Healthcare) was used to calculate the parameters.
as §4
When kynurenine dissociation was too fast to determine the dissociation rate constant, the dissociation constant KD (M) was calculated by analysis of equilibrium values based on the degree of binding response when it is interacted with each antigen (association phase). Also in this case, the Biacore T200 Evaluation Software (GE Healthcare) was used to calculate parameters. […] Each variant and its parental antibody F02h011/F021003 were compared in terms of the KD value for kynurenine.
When kynurenine dissociation was too fast to determine the dissociation rate constant, the dissociation constant KD (M) was calculated by analyzing equilibrium values based on the degree of binding response when it is interacted with each antigen (association phase). Also in this case, the Biacore T200 Evaluation Software (GE Healthcare) was used to calculate parameters. […] Each variant and its parental sequence F02h011/F021003 were compared in terms of the KD value for kynurenine.

For data set [7], the target named is T1, human IL-6 receptor (hIL-6R) (Homo sapiens, UniProt P08887).
T1 sequence (P08887 20-357 limits assumed): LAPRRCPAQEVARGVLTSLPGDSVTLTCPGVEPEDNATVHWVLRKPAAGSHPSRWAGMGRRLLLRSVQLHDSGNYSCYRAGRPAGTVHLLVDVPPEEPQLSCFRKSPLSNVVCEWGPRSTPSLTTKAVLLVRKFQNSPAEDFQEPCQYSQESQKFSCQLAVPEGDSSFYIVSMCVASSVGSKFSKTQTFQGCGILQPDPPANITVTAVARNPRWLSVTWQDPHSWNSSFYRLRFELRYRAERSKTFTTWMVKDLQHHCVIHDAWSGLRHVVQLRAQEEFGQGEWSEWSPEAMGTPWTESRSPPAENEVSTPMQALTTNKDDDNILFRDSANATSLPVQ
Nature of the data set: phage ELISA for hIL-6R binding in the presence/absence of small molecule cocktail (SC). To be noted: absorbance at 450 nm. On the procedure: From a single colony of E. coli obtained in (6-1), a phage-containing culture supernatant was collected according to a conventional method (Methods Mol. Biol. (2002) 178, 133-145). […] A StreptaWell 96 microtiter plate (Roche) was coated overnight with 100 μL of TBS containing biotin-labeled hIL-6R. […] After removing 2% skim milk/TBS, purified phages were added to each well of the plate, and the plate was left still at room temperature for one hour to allow antibody-presenting phages to bind to biotin-labeled hIL-6R present in each well in the presence/absence of SC. Each well was washed with TBST or SC/TBST, and HRP-conjugated anti-M13 antibody (Amersham Pharmacia Biotech) diluted with TBS or SC/TBS was added thereto, and the plate was incubated for one hour. After washing with TBST or SC/TBST, the chromogenic reaction of TMB single solution (ZYMED) added in each well was terminated by adding sulfuric acid. Then, the color development was measured by absorbance at 450 nm.

For data set [8], the target named is T1, human IL-6 receptor (hIL-6R). Nature of the data set: IgG ELISA for hIL-6R binding under small molecule conditions of Table 12. To be noted: IgG 2.5 μg/mL. On the procedure:
Three types of obtained antibodies 6RNMSC1-2_F02, 6RNMSC1-3_G02, and GC413 were subjected to ELISA under the nine conditions shown in Table 12. The antigen used was biotin-labeled hIL-6R.
First, a StreptaWell 96 microtiter plate (Roche) was coated with 100 μL of PBS containing biotin-labeled hIL-6R at room temperature for one hour or longer. […] 100 μL of each of the purified IgGs prepared at 2.5 μg/mL using Sample Buffer containing small molecules at the final concentrations shown in Table 12 were added to each well, and the plate was let still at room temperature for one hour to allow each IgG to bind to biotin-labeled hIL-6R present in each well. After washing with Wash Buffer containing small molecules at the final concentrations shown in Table 12, HRP-conjugated anti-human IgG antibody (BIOSOURCE) diluted with Sample Buffer containing the same small molecules was added to each well and the plate was incubated for one hour. After washing with Wash Buffer containing respective small molecules, the chromogenic reaction of TMB single solution (ZYMED) added in each well was terminated by adding sulfuric acid. Then, the color development was measured by absorbance at 450 nm.
In general terms: An ELISA detects its analyte on a solid surface through an enzyme-linked reagent.

Residue numbers refer to the chain shown, from its start.

Method for Tm measurement by DSC: Measurement by DSC was carried out by a method known to those skilled in the art.
DSC measurement was carried out by a method known to those skilled in the art.

B1: PF1: hIL-6R-binding clone prepared as a negative control; heavy chain SEQ ID NO: 50, light chain SEQ ID NO: 51 (antibody, V domains shown)
VH: QVQLQESGPGLVKPSETLSLTCAVSGYSISDDHAWSWVRQPPGEGLEWIGYISYSGITNYNPSLKGRVTISRDTSKNQFSLKLSSVTAADTAAYYCARVLARITAMDYWGEGTLVTVSS
VL: DIQMTQSPSSLSASVGDSVTITCQASQDISSYLNWYQQKPGKAPELLIYYGSELHSGVPSRFSGSGSGTDFTFTISSLEAEDAATYYCGQGNRLPYTFGQGTKVEIE
B1: the “binding to biotin-labeled antigen with ATP as competitor” value in [1] is listed as “not detected regardless of the ATP concentration”.

B2: humanized SMB0002: heavy chain variable region SEQ ID NO: 85; light chain variable region SEQ ID NO: 86 (antibody, V domains shown)
VH: QVQLVQSGAEVKKPGASVKVSCKVSGIDLTNYAMGWVRQPPGKGLEWIGIIGADSSTWYPSWVKGRFTISKDTSKNQVVLTMTNMDPVDTATYYCARGRFVGYTNAFDPWGQGTLVTVSS
VL: DIQLTQSPSSLSASVGDRVTITCQSSQSVWNNNYLSWYQQKPGQPPKLLIYDASTLASGVPSRFSGSGSGTDFTLTINSLEAEDAATYYCHGSYANSGWYDNAFGGGTEVVVK
Take B2: the Kd in data set [2] was 35 µM; in data set [3] it was 0.0075 µM; in data set [4], 79 µM; in [5], 140 µM.

B3: F02h011/F021003: 6RNMSC1-2_F02 with framework restored to germline; variable regions SEQ ID NO: 95 and 96 (antibody, V domains shown)
VH: QVQLVQSGAEVKKPGSSVKVSCKASGGTFSSYAISWVRQAPGQGLEWMGGIIPIFGTANYAQKFQGRVTITADESTSTAYMELSSLRSEDTAVYYCARDAPVVARPRGAFDIWGQGTLVTVSS
VL: DIVMTQSPLSLPVTPGEPASISCRSSQSLVHSDGNTYLSWYLQKPGQSPQLLIYEISNRFSGVPDRFSGSGSGTDFTLKISRVEAEDVGVYYCMQATQFPRTFGQGTKVEIK
As for B3, the “kynurenine binding (in words)” value in data set [6] (Biacore) is “retain kynurenine binding”. Further, in [6], binding was put at a Kd of 110 µM, the ka for kynurenine worked out at 3664 M⁻¹ s⁻¹ and the kd for kynurenine came to 0.40 L/s. Moreover, the Tm in “Tm measurement by DSC” was 85.2 °C.

B4: F02h011/F021098: F02h011/F021003 with Lch_Ser56Tyr; variable regions SEQ ID NO: 95 and 97 (antibody, V domains shown)
VH: B3 VH
VL: B3 VL with S61Y
B4: in data set [6], binding was characterised by a dissociation constant (Kd) of 72 µM, the ka for kynurenine came out at 3686 M⁻¹ s⁻¹ and the kd for kynurenine is 0.26 L/s.

B5: 6RNMSC1-3_G02: antibody binding hIL-6R in the presence of ATP; heavy chain SEQ ID NO: 34, light chain SEQ ID NO: 35 (antibody, listed as Homo sapiens, V domains shown)
VH: EVQLVQSGGDLVKPGGSLRLSCAASGFTFSNYAMHWVRQAPGKGLEWVAVVSYDGSNKYYADSVKGRFTISRDNSKNTLYLQMNSLRAEDTAVYYCARLVPSSGYPGRFDPWGQGTLVTVSS
VL: NIQMTQSPSSLSASVGDRVTITCRASQSISSSLNWYQQIPGKAPKLLIYAASSLQSGVPSRFSGSGSGTDFTLTISSLQPEDFASYYCQQSYSAWTFGQGTKVEIK
Take B5: the “binding activity to the antigen hIL-6R in the presence of a small molecule mixture” value in data set [7] is listed as “having binding activity”. In data set [8] (absorbance at 450 nm), the “absorbance under condition 9 (no small molecule) compared to condition 8 (cocktail of all small molecules)” value is on record as “significantly lower”. Also, in data set [8] (conditions 1-9 of Table 12, absorbance at 450 nm), the “small molecule in whose presence the antibody binds hIL-6R” value is “binds to the antigen hIL-6R in the presence of ATP”.

As a reminder, the Kd is the equilibrium constant for the complex coming apart. Usually Tm stands for the temperature at which the thermal transition is half complete.

The record behind these values is US20210180049A1 (CHUGAI SEIYAKU KABUSHIKI KAISHA, priority 2013, published 2021).
